Experimental data: US20090053196

T1: myc-tagged UFD-2 (^mycUFD-2), Q09349
T1 chain: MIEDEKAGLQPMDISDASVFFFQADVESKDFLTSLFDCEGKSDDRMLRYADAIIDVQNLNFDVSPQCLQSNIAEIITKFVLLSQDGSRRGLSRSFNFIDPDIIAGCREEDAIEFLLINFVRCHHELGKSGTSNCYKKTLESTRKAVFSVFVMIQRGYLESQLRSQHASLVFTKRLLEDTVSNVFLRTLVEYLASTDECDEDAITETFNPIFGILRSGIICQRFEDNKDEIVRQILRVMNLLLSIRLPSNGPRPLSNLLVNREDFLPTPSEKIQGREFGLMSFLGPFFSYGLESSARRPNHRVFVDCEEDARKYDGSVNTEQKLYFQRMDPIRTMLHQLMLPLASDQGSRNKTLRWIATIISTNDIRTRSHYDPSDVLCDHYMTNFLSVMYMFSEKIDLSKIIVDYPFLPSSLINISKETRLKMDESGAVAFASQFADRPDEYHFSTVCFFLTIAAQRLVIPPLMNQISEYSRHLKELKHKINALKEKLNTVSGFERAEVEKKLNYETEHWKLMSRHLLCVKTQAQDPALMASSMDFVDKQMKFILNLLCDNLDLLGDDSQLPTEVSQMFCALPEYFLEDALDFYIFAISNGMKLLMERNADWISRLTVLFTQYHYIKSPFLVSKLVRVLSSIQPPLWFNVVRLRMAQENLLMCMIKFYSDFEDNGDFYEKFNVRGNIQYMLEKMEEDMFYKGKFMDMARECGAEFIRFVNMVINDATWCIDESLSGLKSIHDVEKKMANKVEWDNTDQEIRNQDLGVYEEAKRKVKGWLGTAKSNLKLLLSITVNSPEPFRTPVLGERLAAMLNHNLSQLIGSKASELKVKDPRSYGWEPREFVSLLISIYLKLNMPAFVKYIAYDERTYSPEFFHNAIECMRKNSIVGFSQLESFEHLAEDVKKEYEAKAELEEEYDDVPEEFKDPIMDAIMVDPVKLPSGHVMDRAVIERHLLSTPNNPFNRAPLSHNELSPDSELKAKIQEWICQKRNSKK


Tests used:
[1] = target: FLAG-tagged UNC-45 (UNC-45^FLAG)
[2] = target: T1, myc-tagged UFD-2 (^mycUFD-2), Q09349

| Protein | in vitro ubiquitylation of UNC-45 (with E1 and the E2 LET-70), Western blot [1] | in vitro multiubiquitylation of UNC-45 with both enzymes present, Western blot [2] |
| --- | --- | --- |
| myc-tagged UFD-2 (^mycUFD-2) (protein) MIEDEKAGLQPMDISDASVFFFQADVESKDFLTSLFDCEGKSDDRMLRYADAIIDVQNLNFDVSPQCLQSNIAEIITKFVLLSQDGSRRGLSRSFNFIDPDIIAGCREEDAIEFLLINFVRCHHELGKSGTSNCYKKTLESTRKAVFSVFVMIQRGYLESQLRSQHASLVFTKRLLEDTVSNVFLRTLVEYLASTDECDEDAITETFNPIFGILRSGIICQRFEDNKDEIVRQILRVMNLLLSIRLPSNGPRPLSNLLVNREDFLPTPSEKIQGREFGLMSFLGPFFSYGLESSARRPNHRVFVDCEEDARKYDGSVNTEQKLYFQRMDPIRTMLHQLMLPLASDQGSRNKTLRWIATIISTNDIRTRSHYDPSDVLCDHYMTNFLSVMYMFSEKIDLSKIIVDYPFLPSSLINISKETRLKMDESGAVAFASQFADRPDEYHFSTVCFFLTIAAQRLVIPPLMNQISEYSRHLKELKHKINALKEKLNTVSGFERAEVEKKLNYETEHWKLMSRHLLCVKTQAQDPALMASSMDFVDKQMKFILNLLCDNLDLLGDDSQLPTEVSQMFCALPEYFLEDALDFYIFAISNGMKLLMERNADWISRLTVLFTQYHYIKSPFLVSKLVRVLSSIQPPLWFNVVRLRMAQENLLMCMIKFYSDFEDNGDFYEKFNVRGNIQYMLEKMEEDMFYKGKFMDMARECGAEFIRFVNMVINDATWCIDESLSGLKSIHDVEKKMANKVEWDNTDQEIRNQDLGVYEEAKRKVKGWLGTAKSNLKLLLSITVNSPEPFRTPVLGERLAAMLNHNLSQLIGSKASELKVKDPRSYGWEPREFVSLLISIYLKLNMPAFVKYIAYDERTYSPEFFHNAIECMRKNSIVGFSQLESFEHLAEDVKKEYEAKAELEEEYDDVPEEFKDPIMDAIMVDPVKLPSGHVMDRAVIERHLLSTPNNPFNRAPLSHNELSPDSELKAKIQEWICQKRNSKK | addition of one to three ubiquitins to the substrate protein UNC-45 | – |
| myc-tagged CHN-1 (^mycCHN-1) (protein) MSSGAEQHNTNGKKCYMNKRYDDAVDHYSKAIKVNPLPKYYQNRAMCYFQLNNLKMTEEDCKRALELSPNEVKPLYFLGNVFLQSKKYSEAISCLSKALYHNAVITNAPDIENALKRARHQKYEEEESKRIVQDVEFHTYLESLIEKDRQENSENPEELQRADMAKKRLTELTLATQEKRQNREVPEMLCGKITLELMKEPVIVPSGITYDREEIVQHLRRIGHFDPVTRKPLTENEIIPNYALKEVIEKFLDDNPWAKYEPGGMV | the addition of full-length CHN-1 proceeds to efficient ubiquitin conjugation. However, the majority of conjugates appeared to contain only one to three ubiquitin moieties | these enzymes together dramatically stimulated the multiubiquitylation reaction, yielding UNC-45 conjugates with significantly longer chains than those conjugated by CHN-1 or UFD-2 alone |
